A word on the Kd: it is the concentration at which binding is half-saturated. A low value points to higher affinity.

This passage reports Kd results from article PMC10786891, “Massively parallel profiling of RNA-targeting CRISPR-Cas13d”.

Substitutions are numbered along the chain they refer to.

To fix the notation:
B1: target 2 MT 5'PFS CUA 3'PFS UCU (mixed)
RNA 1: CACCCGUGCAAAAUUGCAGGGGUCUAAAACCUUCUCCAAAUUGUUUCAUCCU
RNA 2: GGGAAUGGAUCCACAUCUACGAAUUCCUAAGGAUGAAACAAUUUGGAGAAGUCUAGAUCGGAAGAGCACACGU
B2: target 2 MT 5'PFS UUU 3'PFS UGU (mixed)
RNA 1: B1 RNA 1
RNA 2: B1 RNA 2 with C27U, A29U, C53G
B3: target 2 MT 5'PFS GAC 3'PFS AAA (mixed)
RNA 1: B1 RNA 1
RNA 2: B1 RNA 2 with C27G, U28A, A29C, U52A, C53A, U54A
B4: target 2 MT 5'PFS UGG 3'PFS ACA (mixed)
RNA 1: B1 RNA 1
RNA 2: B1 RNA 2 with C27U, U28G, A29G, U52A, U54A
B5: target 2 MT 5'PFS UGG 3'PFS ACC (mixed)
RNA 1: B1 RNA 1
RNA 2: B1 RNA 2 with C27U, U28G, A29G, U52A, U54C
B6: target 2 MT 5'PFS CUU 3'PFS UUC (mixed)
RNA 1: B1 RNA 1
RNA 2: B1 RNA 2 with A29U, C53U, U54C
B7: target 2 MT 5'PFS ACA 3'PFS AUU (mixed)
RNA 1: B1 RNA 1
RNA 2: B1 RNA 2 with C27A, U28C, U52A, C53U
B8: target 2 MT 5'PFS UGC 3'PFS UUA (mixed)
RNA 1: B1 RNA 1
RNA 2: B1 RNA 2 with C27U, U28G, A29C, C53U, U54A
B9: target 2 MT 5'PFS GCC 3'PFS UAA (mixed)
RNA 1: B1 RNA 1
RNA 2: B1 RNA 2 with C27G, U28C, A29C, C53A, U54A
B10: target 2 MT 5'PFS UAC 3'PFS ACU (mixed)
RNA 1: B1 RNA 1
RNA 2: B1 RNA 2 with C27U, U28A, A29C, U52A
B11: target 2 MT 5'PFS CUU 3'PFS UUA (mixed)
RNA 1: B1 RNA 1
RNA 2: B1 RNA 2 with A29U, C53U, U54A
B12: target 2 MT 5'PFS AUG 3'PFS UUC (mixed)
RNA 1: B1 RNA 1
RNA 2: B1 RNA 2 with C27A, A29G, C53U, U54C
B13: target 2 MT 5'PFS UUU 3'PFS UGC (mixed)
RNA 1: B1 RNA 1
RNA 2: B1 RNA 2 with C27U, A29U, C53G, U54C
B14: target 2 MT 5'PFS UGG 3'PFS ACU (mixed)
RNA 1: B1 RNA 1
RNA 2: B1 RNA 2 with C27U, U28G, A29G, U52A
B15: target 2 MT 5'PFS GGA 3'PFS UGC (mixed)
RNA 1: B1 RNA 1
RNA 2: B1 RNA 2 with C27G, U28G, C53G, U54C
B16: target 2 MT 5'PFS AAA 3'PFS CAG (mixed)
RNA 1: B1 RNA 1
RNA 2: B1 RNA 2 with C27A, U28A, U52C, C53A, U54G
B17: target 2 MT 5'PFS AGG 3'PFS CAU (mixed)
RNA 1: B1 RNA 1
RNA 2: B1 RNA 2 with C27A, U28G, A29G, U52C, C53A
B18: target 2 MT 5'PFS CUU 3'PFS UUU (mixed)
RNA 1: B1 RNA 1
RNA 2: B1 RNA 2 with A29U, C53U
B19: target 2 MT 5'PFS CUC 3'PFS CCU (mixed)
RNA 1: B1 RNA 1
RNA 2: B1 RNA 2 with A29C, U52C
B20: target 2 MT 5'PFS CUC 3'PFS CCA (mixed)
RNA 1: B1 RNA 1
RNA 2: B1 RNA 2 with A29C, U52C, U54A
B21: target 2 MT 5'PFS GCC 3'PFS UAU (mixed)
RNA 1: B1 RNA 1
RNA 2: B1 RNA 2 with C27G, U28C, A29C, C53A
B22: target 2 MT 5'PFS GCC 3'PFS UAG (mixed)
RNA 1: B1 RNA 1
RNA 2: B1 RNA 2 with C27G, U28C, A29C, C53A, U54G
B23: target 2 MT 5'PFS UGG 3'PFS ACG (mixed)
RNA 1: B1 RNA 1
RNA 2: B1 RNA 2 with C27U, U28G, A29G, U52A, U54G
B24: target 2 MT 5'PFS AAA 3'PFS CAC (mixed)
RNA 1: B1 RNA 1
RNA 2: B1 RNA 2 with C27A, U28A, U52C, C53A, U54C
B25: target 2 MT 5'PFS GAC 3'PFS AAG (mixed)
RNA 1: B1 RNA 1
RNA 2: B1 RNA 2 with C27G, U28A, A29C, U52A, C53A, U54G
B26: target 2 MT 5'PFS CUC 3'PFS UUG (mixed)
RNA 1: B1 RNA 1
RNA 2: B1 RNA 2 with A29C, C53U, U54G
B27: target 2 MT 5'PFS AAU 3'PFS UAU (mixed)
RNA 1: B1 RNA 1
RNA 2: B1 RNA 2 with C27A, U28A, A29U, C53A
B28: target 2 MT 5'PFS GAC 3'PFS AAC (mixed)
RNA 1: B1 RNA 1
RNA 2: B1 RNA 2 with C27G, U28A, A29C, U52A, C53A, U54C
B29: target 2 MT 5'PFS CUU 3'PFS UUG (mixed)
RNA 1: B1 RNA 1
RNA 2: B1 RNA 2 with A29U, C53U, U54G
B30: target 2 MT 5'PFS UGC 3'PFS UUC (mixed)
RNA 1: B1 RNA 1
RNA 2: B1 RNA 2 with C27U, U28G, A29C, C53U, U54C
B31: target 2 MT 5'PFS CUC 3'PFS CCG (mixed)
RNA 1: B1 RNA 1
RNA 2: B1 RNA 2 with A29C, U52C, U54G
B32: target 2 MT 5'PFS GCC 3'PFS UAC (mixed)
RNA 1: B1 RNA 1
RNA 2: B1 RNA 2 with C27G, U28C, A29C, C53A, U54C
B33: target 2 MT 5'PFS AUA 3'PFS AUU (mixed)
RNA 1: B1 RNA 1
RNA 2: B1 RNA 2 with C27A, U52A, C53U
B34: target 1 insU 3' of 12,insC 3' of 1 (mixed)
RNA 1: CACCCGUGCAAAAAUGCAGGGGUCUAAAACUGAGCGGAUAACCUCUCUAUGG
RNA 2: GGGAAUGGAUCCACAUCUACGAAUUCGUACCAUAGAGAGGUUUAUCCGCUCACCCGAGAUCGGAAGAGCACACGU
B35: target 1 insU 3' of 20,insG 3' of 9 (mixed)
RNA 1: B34 RNA 1
RNA 2: GGGAAUGGAUCCACAUCUACGAAUUCGUACCAUUAGAGAGGUUAGUCCGCUCACCGAGAUCGGAAGAGCACACGU
B36: target 1 insA 3' of 7,insG 3' of 2 (mixed)
RNA 1: B34 RNA 1
RNA 2: B34 RNA 2 with U43A, A44U, U45C, C46A, A52G, C53A

The target of this data set is T1, EsCas13d, nuclease-dead (Eubacterium siraeum, UniProt B0MS50, R295A;H300A;R849A;H854A).
T1 sequence: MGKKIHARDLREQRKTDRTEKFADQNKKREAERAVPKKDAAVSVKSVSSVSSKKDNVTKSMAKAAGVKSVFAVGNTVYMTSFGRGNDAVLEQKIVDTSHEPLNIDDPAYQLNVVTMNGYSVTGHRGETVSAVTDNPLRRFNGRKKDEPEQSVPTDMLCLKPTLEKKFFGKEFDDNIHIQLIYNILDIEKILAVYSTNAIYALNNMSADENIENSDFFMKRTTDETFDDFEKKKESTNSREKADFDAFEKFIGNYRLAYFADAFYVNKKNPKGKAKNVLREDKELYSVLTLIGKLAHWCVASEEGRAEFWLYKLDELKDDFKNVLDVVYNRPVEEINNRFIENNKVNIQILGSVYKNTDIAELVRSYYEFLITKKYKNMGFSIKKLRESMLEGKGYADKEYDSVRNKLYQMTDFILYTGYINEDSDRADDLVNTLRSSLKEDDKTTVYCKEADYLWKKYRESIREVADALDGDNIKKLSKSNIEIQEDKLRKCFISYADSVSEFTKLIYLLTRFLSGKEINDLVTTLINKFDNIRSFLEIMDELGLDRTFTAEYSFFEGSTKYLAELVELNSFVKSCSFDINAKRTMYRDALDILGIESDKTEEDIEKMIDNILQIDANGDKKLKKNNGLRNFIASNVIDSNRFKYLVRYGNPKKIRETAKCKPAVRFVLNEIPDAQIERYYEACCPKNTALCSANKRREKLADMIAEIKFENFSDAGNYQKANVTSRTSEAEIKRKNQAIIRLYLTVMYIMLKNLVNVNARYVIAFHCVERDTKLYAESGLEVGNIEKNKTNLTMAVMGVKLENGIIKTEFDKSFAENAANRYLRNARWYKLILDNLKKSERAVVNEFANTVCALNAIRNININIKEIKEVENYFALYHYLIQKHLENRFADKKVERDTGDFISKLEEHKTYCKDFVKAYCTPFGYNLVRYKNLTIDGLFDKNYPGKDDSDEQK
Put plainly: crRNA (strand 1, pre-loaded); Mg2+; 40 mM Tris-HCl pH 7.5, 150 mM NaCl, 6 mM MgCl2, 1 mM DTT, 0.1% Tween-20, 0.2 mg/ml BSA; 25 C; 10 min per concentration, then washed. The settings on record: tags: His6-TwinStrep-SUMO cleaved; N-terminal SNAP kept (SNAP-Surface 488); label: 3' end held by stalled T7 RNA polymerase.
As to B1, the equilibrium dissociation constant (Kd) was determined as 3.6 ± 0.4 nM.
The result for B2 reads 16 ± 1.8 nM; that for B3, 9.5 ± 1.9 nM; that for B4, 6 ± 0.7 nM.
For B5 the value was 27 ± 6 nM.
For B6 the value was 9.2 ± 2 nM.
On to B7, for which the dissociation constant Kd came out at 5.5 ± 0.8 nM. This Kd is about 1.7-fold lower than that of the molecule before.
For B8 the value was approximately 27 nM.
For B9 the value was 10.9 ± 2.7 nM; for B10, 9 ± 2.5 nM.
The result for B11 reads 5 ± 0.5 nM; that for B12, 21 ± 4 nM; that for B13, 5.2 ± 0.4 nM.
Molecule B14 returned a dissociation constant (Kd) of 9.5 ± 1.3 nM.
For B15 the value was 10.5 ± 0.9 nM; for B16, 3.8 ± 0.6 nM.
The result for B17 reads 4.6 ± 0.6 nM.
The result for B18 reads 8.4 ± 0.7 nM.
Take B19: the Kd worked out at 23 ± 7 nM.
Molecule B20 registered a Kd of 4.8 ± 0.7 nM.
B21 returned a Kd of 22 ± 4 nM. Compared with the last molecule, the Kd is about 4.6-fold higher.
B22 yielded a Kd of 12 ± 3.4 nM.
The result for B23 reads 5.5 ± 0.4 nM; that for B24, 5.4 ± 1.2 nM.
With B25, the dissociation constant Kd was 8 ± 0.8 nM.
For the molecule B26, the equilibrium dissociation constant (Kd) turned out to be 3.2 ± 0.5 nM. This Kd lies about 2.5-fold lower than the previous one.
For the molecule B27, the Kd was 4.9 ± 0.9 nM.
For B28 the value was 11.4 ± 2.3 nM; for B29, 6 ± 0.7 nM; for B30, approximately 40 nM.
The result for B31 reads 2.21 ± 0.24 nM.
For B32 the value was 20 ± 7 nM; for B33, 5.8 ± 0.8 nM; for B34, 8.9 ± 0.7 nM.
The molecule B35 displayed a Kd of 29 ± 4 nM.
The result for B36 reads 7.4 ± 0.7 nM.
